{"source": "paper PMC7103410", "target": "M116, the C-terminal 116 amino acids of SARS-CoV membrane (M) protein (recombinant cytoplasmic region) (SARS-CoV)", "assay": "SPR", "data": [{"substance": "N peptide 101–115", "values": [{"measurement": "Kd", "value": 0.73, "unit": "µM"}]}]}
